{"source": "paper PMC7567440", "target": "pigeon ovomucoid (pigeon)", "test": "BLI; BLItz system; biotinylated POVO; recombinant flagellin", "note": "pKd: −log10 of the molar value.", "data": [{"substance": "recombinant flagellin of Bacillus cereus HN001 (WR52_08290) (natural protein)", "values": [{"measurement": "pKd", "value": 8.43}]}]}
